# IntAct's records for PubMed 12551906
# B1: Dolichyl-phosphate-mannose--protein mannosyltransferase 1 (Saccharomyces cerevisiae), P33775 (parent)
# chain: MSEEKTYKRVEQDDPVPELDIKQGPVRPFIVTDPSAELASLRTMVTLKEKLLVACLAVFTAVIRLHGLAWPDSVVFDEVHFGGFASQYIRGTYFMDVHPPLAKMLYAGVASLGGFQGDFDFENIGDSFPSTTPYVLMRFFSASLGALTVILMYMTLRYSGVRMWVALMSAICFAVENSYVTISRYILLDAPLMFFIAAAVYSFKKYEMYPANSLNAYKSLLATGIALGMASSSKWVGLFTVTWVGLLCIWRLWFMIGDLTKSSKSIFKVAFAKLAFLLGVPFALYLVFFYIHFQSLTLDGDGASFFSPEFRSTLKNNKIPQNVVADVGIGSIISLRHLSTMGGYLHSHSHNYPAGSEQQQSTLYPHMDANNDWLLELYNAPGESLTTFQNLTDGTKVRLFHTVTRCRLHSHDHKPPVSESSDWQKEVSCYGYSGFDGDANDDWVVEIDKKNSAPGVAQERVIALDTKFRLRHAMTGCYLFSHEVKLPAWGFEQQEVTCASSGRHDLTLWYVENNSNPLLPEDTKRISYKPASFISKFIESHKKMWHINKNLVEPHVYESQPTSWPFLLRGISYWGENNRNVYLLGNAIVWWAVTAFIGIFGLIVITELFSWQLGKPILKDSKVVNFHVQVIHYLLGFAVHYAPSFLMQRQMFLHHYLPAYYFGILALGHALDIIVSYVFRSKRQMGYAVVITFLAASVYFFKSFSPIIYGTPWTQELCQKSQWLSGWDYNCNTYFSSLEEYKNQTLTKRESQPAATSTVEEITIEGDGPSYEDLMNEDGKKIFKDTEGNELDPEVVKKMLEEEGANILKVEKRAVLE
# partner: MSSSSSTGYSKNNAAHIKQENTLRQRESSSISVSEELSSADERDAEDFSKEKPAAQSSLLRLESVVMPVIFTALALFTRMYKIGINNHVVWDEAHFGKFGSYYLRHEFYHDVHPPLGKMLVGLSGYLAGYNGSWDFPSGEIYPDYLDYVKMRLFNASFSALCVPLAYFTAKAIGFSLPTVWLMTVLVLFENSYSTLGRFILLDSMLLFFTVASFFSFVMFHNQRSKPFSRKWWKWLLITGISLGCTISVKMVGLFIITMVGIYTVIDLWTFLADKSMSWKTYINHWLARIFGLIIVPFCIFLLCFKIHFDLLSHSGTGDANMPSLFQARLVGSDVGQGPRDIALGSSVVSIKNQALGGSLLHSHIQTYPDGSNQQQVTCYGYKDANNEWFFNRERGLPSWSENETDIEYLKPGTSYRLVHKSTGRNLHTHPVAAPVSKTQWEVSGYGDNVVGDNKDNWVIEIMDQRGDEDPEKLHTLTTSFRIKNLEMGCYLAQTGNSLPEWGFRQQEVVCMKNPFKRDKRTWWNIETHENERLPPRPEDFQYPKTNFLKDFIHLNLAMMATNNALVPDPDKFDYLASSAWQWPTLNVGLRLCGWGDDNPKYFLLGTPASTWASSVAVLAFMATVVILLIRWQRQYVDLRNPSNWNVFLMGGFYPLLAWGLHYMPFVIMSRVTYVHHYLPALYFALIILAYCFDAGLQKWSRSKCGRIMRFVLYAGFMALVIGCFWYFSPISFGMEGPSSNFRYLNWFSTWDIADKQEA
# Variants of: B1
# Settings: with pmt2_yeast PMT2, P31382
row,effect of a mutation on the interaction,Variant
1,decreasing interaction strength,R138K
2,disrupting interaction strength,R138A
